The target of test [1] is His6-TRX-PfPPR1 (Plasmodium falciparum apicoplast pentatricopeptide repeat protein 1, with His6-TRX tag) (Plasmodium falciparum). Description: SEC.
Test [2] deals with PfPPR1 minus the His6-TRX tag (tag cleaved by HRV 3C protease) (Plasmodium falciparum). Description: AUC.

Substance “His6-TRX-PfPPR1 (Plasmodium falciparum apicoplast pentatricopeptide repeat protein 1, with His6-TRX tag) (natural protein)” registered a stoichiometry N in test [1] of 2.

In test [2], “PfPPR1 minus the His6-TRX tag (tag cleaved by HRV 3C protease) (natural protein)” had a stoichiometry N of 2.

One may read the stoichiometry N as a count of units in the complex or per binding partner.

Values taken from publication doi:10.1101/388728.
